T1: dynein-2 intermediate chain WDR60 (human, UniProt Q8WVS4)
T1 sequence: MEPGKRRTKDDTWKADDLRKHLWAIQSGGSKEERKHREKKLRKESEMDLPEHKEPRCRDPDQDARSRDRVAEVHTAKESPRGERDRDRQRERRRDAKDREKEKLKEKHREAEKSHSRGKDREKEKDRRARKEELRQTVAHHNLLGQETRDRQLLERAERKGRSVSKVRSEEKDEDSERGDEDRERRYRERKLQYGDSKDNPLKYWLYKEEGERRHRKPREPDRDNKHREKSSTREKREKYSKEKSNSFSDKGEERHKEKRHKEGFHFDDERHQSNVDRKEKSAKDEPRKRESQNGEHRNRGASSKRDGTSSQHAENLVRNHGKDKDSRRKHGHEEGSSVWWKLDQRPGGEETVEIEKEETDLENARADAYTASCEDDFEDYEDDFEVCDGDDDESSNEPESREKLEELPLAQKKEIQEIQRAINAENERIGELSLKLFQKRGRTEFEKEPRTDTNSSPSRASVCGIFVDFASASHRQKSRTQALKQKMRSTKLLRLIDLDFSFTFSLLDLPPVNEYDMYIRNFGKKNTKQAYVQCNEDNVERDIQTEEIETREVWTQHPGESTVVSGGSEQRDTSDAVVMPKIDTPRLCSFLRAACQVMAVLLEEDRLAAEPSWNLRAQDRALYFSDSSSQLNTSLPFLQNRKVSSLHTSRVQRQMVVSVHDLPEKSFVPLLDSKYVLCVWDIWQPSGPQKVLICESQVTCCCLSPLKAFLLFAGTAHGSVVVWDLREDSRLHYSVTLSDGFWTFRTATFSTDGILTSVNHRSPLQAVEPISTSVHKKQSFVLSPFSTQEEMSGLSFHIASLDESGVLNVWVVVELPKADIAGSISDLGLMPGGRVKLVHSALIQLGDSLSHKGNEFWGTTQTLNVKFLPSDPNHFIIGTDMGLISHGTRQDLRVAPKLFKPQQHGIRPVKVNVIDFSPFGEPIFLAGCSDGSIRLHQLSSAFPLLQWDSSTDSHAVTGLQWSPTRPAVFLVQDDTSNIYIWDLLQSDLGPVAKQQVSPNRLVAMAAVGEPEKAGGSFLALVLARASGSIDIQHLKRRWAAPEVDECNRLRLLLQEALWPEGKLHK


Legend:
[1] = biological target: dynein light chain LC8 (DYNLL1/2) (human) (UniProt P63167); assay: cryo-EM structure
[2] = biological target: T1, dynein-2 intermediate chain WDR60; assay: cryo-EM structure

Sequence of dynein light chain LC8 (DYNLL1/2) (P63167 whole entry): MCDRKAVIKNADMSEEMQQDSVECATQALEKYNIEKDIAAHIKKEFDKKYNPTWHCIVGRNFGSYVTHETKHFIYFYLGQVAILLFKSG

| stoichiometry N [1] | binding result [2] | Molecule |
| --- | --- | --- |
| 2 | – | dynein light chain LC8 (DYNLL1/2) (from UniProt P63167) (natural protein) |
| – | binds | dynein-2 intermediate chain WDR34 (natural protein) MATRAQPGPLSQAGSAGVAALATVGVASGPGPGRPGPLQDETLGVASVPSQWRAVQGIRWETKSCQTASIATASASAQARNHVDAQVQTEAPVPVSVQPPSQYDIPRLAAFLRRVEAMVIRELNKNWQSHAFDGFEVNWTEQQQMVSCLYTLGYPPAQAQGLHVTSISWNSTGSVVACAYGRLDHGDWSTLKSFVCAWNLDRRDLRPQQPSAVVEVPSAVLCLAFHPTQPSHVAGGLYSGEVLVWDLSRLEDPLLWRTGLTDDTHTDPVSQVVWLPEPGHSHRFQVLSVATDGKVLLWQGIGVGQLQLTEGFALVMQQLPRSTKLKKHPRGETEVGATAVAFSSFDPRLFILGTEGGFPLKCSLAAGEAALTRMPSSVPLRAPAQFTFSPHGGPIYSVSCSPFHRNLFLSAGTDGHVHLYSMLQAPPLTSLQLSLKYLFAVRWSPVRPLVFAAASGKGDVQLFDLQKSSQKPTVLIKQTQDESPVYCLEFNSQQTQLLAAGDAQGTVKVWQLSTEFTEQGPREAEDLDCLAAEVAA |

Reference: paper PMC6774794 (Nature structural & molecular biology, 2019)
